Source: article PMC6711812

Target: PpCESA3 (MbYTH bait and prey fusions) (Physcomitrella patens) (UniProt A9RGN5)
Assay: two-hybrid

- colony growth as percent of the positive control: 20%
Substance: PpCESA3 (MbYTH bait and prey fusions) (from UniProt A9RGN5 1-1093) (natural protein)
